The target in assay [1] is T1, TIM-1 antigen (Homo sapiens, UniProt Q96D42, DEL158-162/L179P).
T1 construct: V5; His; made in house; host or cells: baculovirus expression system (pMelV5His vector / pBlueBac)
T1 sequence (Q96D42 with tags, fused parts or gaps DEL158-162/L179P): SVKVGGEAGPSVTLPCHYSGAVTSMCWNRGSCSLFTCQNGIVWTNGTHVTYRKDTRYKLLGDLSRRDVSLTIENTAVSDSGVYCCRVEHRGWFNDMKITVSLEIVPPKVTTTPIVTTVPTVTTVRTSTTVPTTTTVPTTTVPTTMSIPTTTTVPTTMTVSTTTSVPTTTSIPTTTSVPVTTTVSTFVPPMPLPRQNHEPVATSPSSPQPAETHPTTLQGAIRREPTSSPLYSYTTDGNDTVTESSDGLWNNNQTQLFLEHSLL
The experiment in a line: Epitope binning (antigen binding competition, Luminex). Conditions: Table 9. The method, then:
Certain antibodies, described herein were “binned” in accordance with the protocol described in U.S. Patent Application Publication No. 20030157730, published on Aug. 21, 2003, entitled “Antibody Categorization Based on Binding Characteristics.”
MxhIgG conjugated beads were prepared for coupling to primary antibody. The volume of supernatant needed was calculated using the following formula: (n+10)×50 μL (where n=total number of samples on plate). Where the concentration was known, 0.5 μg/mL was used. Bead stock was gently vortexed, then diluted in supernatant to a concentration of 2500 of each bead per well or 0.5×10^5/mL and incubated on a shaker in the dark at room temperature overnight, or 2 hours if at a known concentration of 0.5 μg/mL. Following aspiration, 50 μL of each bead was added to each well of a filter plate, then washed once by adding 100 μL/well wash buffer and aspirating. Antigen and controls were added to the filter plate 50 μL/well then covered and allowed to incubate in the dark for 1 hour on shaker. Following a wash step, a secondary unknown antibody was added at 50 μL/well using the same dilution (or concentration if known) as used for the primary antibody. The plates were then incubated in the dark for 2 hours at room temperature on shaker followed by a wash step. Next, 50 μL/well biotinylated mxhIgG diluted 1:500 was added and allowed to incubate in the dark for 1 hour on shaker at room temperature. Following a wash step, 50 μL/well Streptavidin-PE was added at 1:1000 and allowed to incubate in the dark for 15 minutes on shaker at room temperature. Following a wash step, each well was resuspended in 80 μL blocking buffer and read using a Luminex system.

Assay [2] deals with T1, TIM-1 antigen. The experiment in a line: BiaCore affinity determination of anti-TIM-1 mAb. The assay is classed as binding. The conditions noted are these: 25° C.; mAb captured on chip; TIM-1 antigen injected at 292 nM. The method, then: BiaCore® analysis was used to determine binding affinity of anti-TIM-1 antibody to TIM-1 antigen. The analysis was performed at 25° C. using a BiaCore® 2000 biosensor equipped with a research-grade CMS sensor chip. A high-density goat […] antibody surface over a CMS BiaCore® chip was prepared using routine amine coupling. Antibody supernatants were diluted to ˜5 μg/mL in HBS-P running buffer containing 100 μg/mL BSA and 10 mg/mL carboxymethyldextran. The antibodies were then captured individually on a separate surface using a 2 minute contact time, and a 5 minute wash for stabilization of antibody baseline.
TIM-1 antigen was injected at 292 nM over each surface for 75 seconds, followed by a 3-minute dissociation. Double-referenced binding data were obtained by subtracting the signal from a control flow cell and subtracting the baseline drift of a buffer inject just prior to the TIM-1 injection. TIM-1 binding data for each mAb were normalized for the amount of mAb captured on each surface. The normalized, drift-corrected responses were also measured.

B1: mAb 2.54: fully human IgG4 kappa anti-TIM-1 monoclonal antibody; heavy chain SEQ ID NO: 26, light chain SEQ ID NO: 28 (antibody, listed as Homo Sapiens, V domains shown)
VH: QVQLEQSGGGVVQPGRSLRLSCAASGFTFTNYGLHWVRQAPGKGLDWVAVIWYDGSHKFYADSVKGRFTISRDNSKNTLFLQMNSLRAEDTAVYYCTRDLDYWGQGTLVTVSSA
VL: ETQLTQSPGTLSLSPGERVTLSCRASQSVSNNYLAWYQQKPGQAPRLLIYGASSRATGIPDRFSGSGSGTDFTLTISRLEPEDCAECYCQQYGSSLPLTFGGGTKVEIKR
B1 yielded a Bin with TIM-1 antigen [1] of 7. In addition, binding with TIM-1 antigen [2] was characterised by a dissociation constant (Kd) of 3.35 nM.

B2: mAb 2.59: fully human IgG4 kappa anti-TIM-1 monoclonal antibody; heavy chain SEQ ID NO: 34, light chain SEQ ID NO: 36 (antibody, listed as Homo Sapiens, V domains shown)
VH: NNNNNQSGPRLVKPSQTLSLTCTVSGGSISSDGYYWSWIRQHPGKGLEWIGYIYYSGSTFYNPSLKSRVAISVDTSKNQFSLKLSSVTAADTAVYYCARESPHSSNWYSGFDCWGQGTLVTVSSA
VL: NNNNTQSPDFQSVTPKEKVTITCRASQSIGSRLHWYQQKPDQSPKLLIKYASQSFSGVPSRFSGSGSGTDFTLTINSLEAEDAATYYCHQSSNLPFTFGPGTKVDIKR
Regarding B2, in the assay with TIM-1 antigen [1], the Bin turned out to be 1.

B3: mAb 2.76: fully human IgG4 kappa anti-TIM-1 monoclonal antibody; heavy chain SEQ ID NO: 46, light chain SEQ ID NO: 48 (antibody, listed as Homo Sapiens, V domains shown)
VH: NNNNEQSGGGVVQPGRSLRLSCAASGFTFSSYGMYWVRQAPGKGLEWVAVIWYDGSNKYYADSVKGRFTISRDNSKNTLYLQMNSLRAEDTAVYYCARDFYDSSRYHYGMDVWGQGTTVTVSSA
VL: NNNNTQCPLSLPVTPGEPASISCRSSQSLLDSDDGNTYLDWYLQKPGQSPQLLIYTVSYRASGVPDRFSGSGSGTDFTLKISRVEAEDVGVYYCMQRIEFPITFGQGTRLEIKR
For B3, the Bin with TIM-1 antigen [1] is reported as 4.

B4: mAb 2.56: fully human IgG4 kappa anti-TIM-1 monoclonal antibody; heavy chain SEQ ID NO: 30, light chain SEQ ID NO: 32 (antibody, listed as Homo Sapiens)
heavy: QVQLVESGGGVVQPGRSLRLSCAASGFTFSSYGMHWVRQAPGKGLEWVAVIWYDGSHKYYADSVKGRFTISRDNSKNTLYLQMNSLRAEDTAVYYSARDYYDTSRHHWGFDCWGQGTLVTVSSA
light: EIVMTQTPLSLPVTPGEPASISCRSSQSLLDSEDGNTYLDWYLQKPGQSPQLLIYTLSHRASGVPDRFSGSGSGTDFTLKISRVEAEDVGVYCCMQRVEFPITFGQGTRLEIKR
In the assay with TIM-1 antigen [1], B4 came in with a Bin of 5. Besides, in the assay with TIM-1 antigen [2], the Kd was 1.1 nM.

B5: mAb 2.70: fully human IgG4 kappa anti-TIM-1 monoclonal antibody; heavy chain SEQ ID NO: 42, light chain SEQ ID NO: 44 (antibody, listed as Homo Sapiens, V domains shown)
VH: QVQLVESGGGVVQPGRSLRLSCAASGFIFSRYGMHWVRQAPGKGLKWVAVIWYDGSNKLYADSVKGRFTISRDNSKNTLYLQMNSLRAEDTAVYYCARDYYDNSRHHWGFDYWGQGTLVTVSSA
VL: DIVMTQTPLSLPVTPGEPASISCRSSRSLLDSDDGNTYLDWYLQKPGQSPQLLIYTLSYRASGVPDRFSGSGSGTDFTLKISRVEAEDVGVYYCMQRVEFPITFGQGTRLEIKR
B5: the Bin with TIM-1 antigen [1] came out at 6.

B6: mAb 2.61: fully human IgG4 kappa anti-TIM-1 monoclonal antibody; heavy chain SEQ ID NO: 38, light chain SEQ ID NO: 40 (antibody, listed as Homo Sapiens, V domains shown)
VH: QVQLVEAGGGVVQPGRSLRLSCAASGFTFRSYGMHWVRQAPGKGLKWVAVIWYDGSNKYYTDSVKGRFTISRDNSKNTLYLQMNSLRAEDTAVYYCVRDYYDNSRHHWGFDYWGQGTLVTVSSA
VL: DIQMTQSPSSRCASVGDRVTITCRASQGIRNDLAWYQQKPGKAPKRLIYAASSLQSGVPSRFSGSRSGTEFTLTISSLQPEDFAAYYCLQHNSYPPSFGQGTKLEIKR
As to B6, the Bin with TIM-1 antigen [1] is on record as 4.

B7: mAb 1.37: fully human IgG2 kappa anti-TIM-1 monoclonal antibody; heavy chain SEQ ID NO: 6, light chain SEQ ID NO: 8 (antibody, listed as Homo Sapiens, V domains shown)
VH: EVQLVESGGGLVQPGGSLRLSCAASGFTFTNYWMSWVRQAPGKGLEWVANIQQDGSEKYYVDSVRGRFTISRDNAKNSLYLQMNSLRAEDSAVYYCARWDYWGQGTLVTVSSA
VL: DIVMTQTPLSSTVILGQPASISCRSSQSLVHSDGNTYLNWLQQRPGQPPRLLIYMISNRFSGVPDRFSGSGAGTDFTLKISRVEAEDVGVYYCMQATESPQTFGQGTKVEIKR
B7 had a Bin in the assay with TIM-1 antigen [1] of 4.

The record behind these values is patent publication US20170267750A1, “Method of Treating Ovarian and Renal Cancer Using Antibodies Against T Cell Immunoglobulin Domain and Mucin Domain 1 (TIM-1) Antigen” (Celldex Therapeutics, Inc., priority 2005, published 2017).
